Laboratory results: patent US20170022545

target: U1A (Homo sapiens) (UniProt P09012); test: pulldown; details: TALON beads, 4 C
Sequence (P09012 2-282): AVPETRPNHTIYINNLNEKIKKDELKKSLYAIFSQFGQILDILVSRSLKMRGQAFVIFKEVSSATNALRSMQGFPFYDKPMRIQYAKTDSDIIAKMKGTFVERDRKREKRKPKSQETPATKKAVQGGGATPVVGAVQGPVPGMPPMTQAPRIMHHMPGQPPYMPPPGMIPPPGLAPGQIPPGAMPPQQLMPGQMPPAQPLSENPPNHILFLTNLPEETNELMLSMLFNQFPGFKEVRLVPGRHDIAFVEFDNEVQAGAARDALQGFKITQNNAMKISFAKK

Question: For hsa-mir-378c loop, which binding signal (Cy5 intensity) is on record?
Answer: 8.37

Question: hsa-mir-412 loop was tested. Which binding signal (Cy5 intensity) did it give?
Answer: 8.95

Question: hsa-mir-422a loop was tested. Which binding signal (Cy5 intensity) did it give?
Answer: 8.78

Question: Which binding signal (Cy5 intensity) does the source give for hsa-mir-493 loop here?
Answer: 8.41

Question: Which binding signal (Cy5 intensity) does the source give for hsa-mir-637 loop here?
Answer: 8.4

Question: For hsa-mir-658 loop, which binding signal (Cy5 intensity) is on record?
Answer: 8.27

Question: How did the binding signal (Cy5 intensity) turn out when hsa-mir-1273h loop was run?
Answer: 8.2

Question: Which binding signal (Cy5 intensity) does the source give for hsa-mir-1302-6 loop here?
Answer: 8.55

Question: hsa-mir-2682 loop was tested. Which binding signal (Cy5 intensity) did it give?
Answer: 8.27

Question: How did the binding signal (Cy5 intensity) turn out when hsa-mir-3661 loop was run?
Answer: 9.05

Question: How did the binding signal (Cy5 intensity) turn out when hsa-mir-4315-2 loop was run?
Answer: 8.28

Question: Which binding signal (Cy5 intensity) does the source give for hsa-mir-4499 loop here?
Answer: 8.28

Question: How did the binding signal (Cy5 intensity) turn out when hsa-mir-4723 loop was run?
Answer: 8.48

Question: Which binding signal (Cy5 intensity) does the source give for hsa-mir-5196 loop here?
Answer: 8.67

Question: Which binding signal (Cy5 intensity) does the source give for hsa-mir-6796 loop here?
Answer: 8.72

Question: hsa-mir-6807 loop was tested. Which binding signal (Cy5 intensity) did it give?
Answer: 8.28

Question: Which binding signal (Cy5 intensity) does the source give for hsa-mir-6845 loop here?
Answer: 9.06

Question: How did the binding signal (Cy5 intensity) turn out when hsa-mir-7848 loop was run?
Answer: 8.69

target: T1, Lin28A (UniProt Q9H9Z2); test: pulldown; details: TALON beads, 4 C
T1 sequence: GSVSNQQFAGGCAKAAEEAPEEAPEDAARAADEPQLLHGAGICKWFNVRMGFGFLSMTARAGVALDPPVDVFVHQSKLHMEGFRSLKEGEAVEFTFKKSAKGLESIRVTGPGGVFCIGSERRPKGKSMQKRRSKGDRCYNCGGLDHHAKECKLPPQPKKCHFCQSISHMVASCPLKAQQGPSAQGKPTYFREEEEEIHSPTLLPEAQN

Question: Which binding signal (Cy5 intensity) does the source give for hsa-mir-98 loop here?
Answer: 6.41

Question: For hsa-mir-598 loop, which binding signal (Cy5 intensity) is on record?
Answer: 6.47

Question: Which binding signal (Cy5 intensity) does the source give for hsa-mir-638 loop here?
Answer: 6.27

Question: Which binding signal (Cy5 intensity) does the source give for hsa-mir-940 loop here?
Answer: 6.33

Question: hsa-mir-1233-1 loop was tested. Which binding signal (Cy5 intensity) did it give?
Answer: 6.55

Question: How did the binding signal (Cy5 intensity) turn out when hsa-mir-1233-2 loop was run?
Answer: 6.43

Question: For hsa-mir-4296 loop, which binding signal (Cy5 intensity) is on record?
Answer: 6.29

Question: hsa-mir-4453 loop was tested. Which binding signal (Cy5 intensity) did it give?
Answer: 6.54

Question: How did the binding signal (Cy5 intensity) turn out when hsa-mir-4524b loop was run?
Answer: 6.33

Question: Which binding signal (Cy5 intensity) does the source give for hsa-mir-4730 loop here?
Answer: 6.28

Question: How did the binding signal (Cy5 intensity) turn out when hsa-mir-5004 loop was run?
Answer: 6.38

Question: hsa-mir-6758 loop was tested. Which binding signal (Cy5 intensity) did it give?
Answer: 6.35

Question: For hsa-mir-6775 loop, which binding signal (Cy5 intensity) is on record?
Answer: 6.44

Question: With hsa-mir-6839 loop as the substance, how does the binding signal (Cy5 intensity) read?
Answer: 6.39

Question: With hsa-mir-6884 loop as the substance, how does the binding signal (Cy5 intensity) read?
Answer: 6.37

target: L7Ae (UniProt O29494); test: not given; details: RNA microarray, 5 nM L7Ae
Sequence (O29494 whole entry): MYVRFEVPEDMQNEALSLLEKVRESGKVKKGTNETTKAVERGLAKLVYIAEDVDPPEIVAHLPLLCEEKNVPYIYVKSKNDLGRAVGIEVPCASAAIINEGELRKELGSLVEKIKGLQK

Question: How did the binding signal (log2 Cy3-Cy5+20) turn out when hsa-mir-1-2 loop was run?
Answer: 11.3

Question: How did the binding signal (log2 Cy3-Cy5+20) turn out when hsa-mir-16-2 loop was run?
Answer: 11.5

Question: For hsa-mir-34a loop, which binding signal (log2 Cy3-Cy5+20) is on record?
Answer: 11.3

Question: hsa-mir-204 loop was tested. Which binding signal (log2 Cy3-Cy5+20) did it give?
Answer: 11.7

Question: With hsa-mir-363 loop as the substance, how does the binding signal (log2 Cy3-Cy5+20) read?
Answer: 12.5

Question: For hsa-mir-4479 loop, which binding signal (log2 Cy3-Cy5+20) is on record?
Answer: 11.3

Question: With hsa-mir-6773 loop as the substance, how does the binding signal (log2 Cy3-Cy5+20) read?
Answer: 11.3

Question: How did the binding signal (log2 Cy3-Cy5+20) turn out when hsa-mir-6834 loop was run?
Answer: 11.5

Question: mmu-mir-466p loop was tested. Which binding signal (log2 Cy3-Cy5+20) did it give?
Answer: 13.3

Question: With mmu-mir-6338 loop as the substance, how does the binding signal (log2 Cy3-Cy5+20) read?
Answer: 11.6

Question: With mmu-mir-6995 loop as the substance, how does the binding signal (log2 Cy3-Cy5+20) read?
Answer: 12.2

Question: Which binding signal (log2 Cy3-Cy5+20) does the source give for mmu-mir-7061 loop here?
Answer: 11.8

Question: For mmu-mir-7220 loop, which binding signal (log2 Cy3-Cy5+20) is on record?
Answer: 11.5
